Assay results reported in publication PMC10137048.

Target: amyloid beta (Aβ) peptide Aβ42

Substance: amyloid beta (Aβ) peptide Aβ42
- stoichiometry N: < 4
